# Measured values as given in patent publication US20050282743A1, “Molecular interactions in cells” (Arbor Vita Corporation, priority 2001, published 2005).
# T1: GST-MINT1 PDZ domain 1 (Mus musculus (Mouse)), B2RUJ5
# T1 chain: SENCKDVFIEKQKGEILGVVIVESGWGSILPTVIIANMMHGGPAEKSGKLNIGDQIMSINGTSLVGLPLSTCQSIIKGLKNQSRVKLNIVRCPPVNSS
# T2: GST-MUPP1 PDZ domain 7 (Homo sapiens (Human)), O75970
# T2 chain: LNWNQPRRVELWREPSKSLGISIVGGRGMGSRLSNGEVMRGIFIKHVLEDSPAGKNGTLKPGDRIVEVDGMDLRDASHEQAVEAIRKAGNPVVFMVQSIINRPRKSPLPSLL
# T3: GST-FLJ 10324 PDZ domain 1 [GST: P08515]
# T3 chain: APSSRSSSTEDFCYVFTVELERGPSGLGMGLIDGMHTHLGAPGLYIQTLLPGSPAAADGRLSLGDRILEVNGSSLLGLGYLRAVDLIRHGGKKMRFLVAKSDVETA
# T4: GST-HEMBA 1003117 PDZ domain 1 (Homo sapiens (Human)), Q96JH8
# T4 chain: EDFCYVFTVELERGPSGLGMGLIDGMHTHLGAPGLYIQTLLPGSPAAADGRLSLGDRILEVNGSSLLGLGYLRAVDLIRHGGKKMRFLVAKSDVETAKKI
# T5: GST-KIAA0807(S) PDZ domain 1 (Homo sapiens (Human)), Q6P0Q8
# T5 chain: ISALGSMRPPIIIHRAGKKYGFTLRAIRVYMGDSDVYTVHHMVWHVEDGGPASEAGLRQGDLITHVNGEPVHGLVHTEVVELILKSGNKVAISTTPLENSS
# T6: GST-MUPP1 PDZ domain 11 (Homo sapiens (Human)), O75970
# T6 chain: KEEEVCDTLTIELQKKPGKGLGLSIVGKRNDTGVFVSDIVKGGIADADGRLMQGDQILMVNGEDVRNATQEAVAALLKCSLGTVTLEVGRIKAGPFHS
# T7: GST-Outer Membrane PDZ domain 1 (Homo sapiens (Human)), P57105
# T7 chain: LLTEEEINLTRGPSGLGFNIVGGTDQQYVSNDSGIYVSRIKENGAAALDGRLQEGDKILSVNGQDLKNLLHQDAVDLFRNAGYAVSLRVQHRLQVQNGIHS
# T8: GST-PTPL1 PDZ domain 2 (Homo sapiens (Human)), Q12923
# T8 chain: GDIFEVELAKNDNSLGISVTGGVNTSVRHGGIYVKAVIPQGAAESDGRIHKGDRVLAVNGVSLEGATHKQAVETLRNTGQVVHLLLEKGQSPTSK
# T9: GST-DLG2 PDZ domain 2 (Homo sapiens (Human)), Q15700
# T9 chain: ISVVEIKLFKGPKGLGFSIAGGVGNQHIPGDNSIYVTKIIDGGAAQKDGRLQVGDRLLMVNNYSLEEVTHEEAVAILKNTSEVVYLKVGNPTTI
# T10: GST-MINT1 PDZ domains 1, 2, Q02410
# T10 chain: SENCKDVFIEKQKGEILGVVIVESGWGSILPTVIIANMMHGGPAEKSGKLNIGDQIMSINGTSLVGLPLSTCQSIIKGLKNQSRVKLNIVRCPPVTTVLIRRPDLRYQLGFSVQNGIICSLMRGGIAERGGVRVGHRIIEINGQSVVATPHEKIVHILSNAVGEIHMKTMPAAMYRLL
# T11: GST-APXL-1 PDZ domain 1 (Homo sapiens (Human)), Q13796
# T11 chain: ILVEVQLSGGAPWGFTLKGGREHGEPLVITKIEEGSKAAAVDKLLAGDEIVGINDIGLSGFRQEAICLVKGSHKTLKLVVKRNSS
# T12: GST-FLJ00011 PDZ domain 1 (Homo sapiens (Human)), Q9H5P4
# T12 chain: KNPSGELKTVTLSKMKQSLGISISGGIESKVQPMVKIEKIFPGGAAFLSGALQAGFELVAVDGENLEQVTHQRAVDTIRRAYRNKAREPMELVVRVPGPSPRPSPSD
# T13: GST-TIP1 PDZ domain 1 (Table 9 insert) (Homo sapiens (Human)), O14907
# T13 chain: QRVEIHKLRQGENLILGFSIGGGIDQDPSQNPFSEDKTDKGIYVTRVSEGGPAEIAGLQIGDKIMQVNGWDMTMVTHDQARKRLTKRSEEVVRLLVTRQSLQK
# T14: GST-MINT1 PDZ domain 2 (Mus musculus (Mouse)), B2RUJ5
# T14 chain: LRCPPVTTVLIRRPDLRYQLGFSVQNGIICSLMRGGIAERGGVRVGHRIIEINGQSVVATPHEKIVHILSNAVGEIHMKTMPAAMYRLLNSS
# T15: GST-SITAC-18 PDZ domain 2 (Homo sapiens (Human)), Q9H190
# T15 chain: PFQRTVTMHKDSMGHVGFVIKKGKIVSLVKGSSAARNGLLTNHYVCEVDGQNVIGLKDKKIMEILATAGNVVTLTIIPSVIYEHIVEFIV
# Experiments:
# [1] = target: T1, GST-MINT1 PDZ domain 1 (Mus musculus …); assay: G assay titration, PDZ 5 ug/ml
# [2] = target: T2, GST-MUPP1 PDZ domain 7 (Homo sapiens …); assay: G assay titration, PDZ 5 ug/ml
# [3] = target: T3, GST-FLJ 10324 PDZ domain 1 [GST: P08515]; assay: G assay titration, PDZ 5 ug/ml
# [4] = target: T4, GST-HEMBA 1003117 PDZ domain 1 (Homo …); assay: G assay titration, PDZ 5 ug/ml
# [5] = target: T5, GST-KIAA0807(S) PDZ domain 1 (Homo …); assay: G assay titration, PDZ 5 ug/ml
# [6] = target: T6, GST-MUPP1 PDZ domain 11 (Homo sapiens …); assay: G assay titration, PDZ 5 ug/ml
# [7] = target: T7, GST-Outer Membrane PDZ domain 1 (Homo …); assay: G assay titration, PDZ 5 ug/ml
# [8] = target: T8, GST-PTPL1 PDZ domain 2 (Homo sapiens …); assay: G assay titration, PDZ 5 ug/ml
# [9] = target: GST-Atrophin-1 Interacting Protein PDZ domain 1 (Rattus norvegicus (Rat)), O88382; assay: G assay titration, PDZ 0.5 ug/ml
# Chain of GST-Atrophin-1 Interacting Protein PDZ domain 1 (Rattus norvegicus (Rat)), O88382 (O88382 408-511): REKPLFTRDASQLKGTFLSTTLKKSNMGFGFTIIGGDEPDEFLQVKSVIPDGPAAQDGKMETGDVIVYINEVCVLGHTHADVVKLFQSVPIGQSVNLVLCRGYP
# [10] = target: GST-DLG1 PDZ domain 1 (Homo sapiens), Q12959; assay: G assay titration, PDZ 0.5 ug/ml
# [11] = target: T9, GST-DLG2 PDZ domain 2 (Homo sapiens …); assay: G assay titration, PDZ 0.5 ug/ml
# [12] = target: T10, GST-MINT1 PDZ domains 1, 2, Q02410; assay: G assay titration, PDZ 5 ug/ml
# [13] = target: T11, GST-APXL-1 PDZ domain 1 (Homo sapiens …); assay: G assay titration, PDZ 0.5 ug/ml
# [14] = target: T12, GST-FLJ00011 PDZ domain 1 (Homo sapiens …); assay: G assay titration, PDZ 5 ug/ml
# [15] = target: GST-TAX IP2 PDZ domain 1 [GST: P08515]; assay: G assay titration, PDZ 5 ug/ml
# Chain of GST-TAX IP2 PDZ domain 1 [GST: P08515] (P08515 whole entry, the tested form may be a part): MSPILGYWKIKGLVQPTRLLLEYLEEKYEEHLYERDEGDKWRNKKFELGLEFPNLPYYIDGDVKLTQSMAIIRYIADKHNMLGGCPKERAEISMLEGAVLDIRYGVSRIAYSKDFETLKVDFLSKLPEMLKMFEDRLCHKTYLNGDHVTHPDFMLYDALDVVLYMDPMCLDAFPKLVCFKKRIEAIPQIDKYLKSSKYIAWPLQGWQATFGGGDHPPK
# [16] = target: T13, GST-TIP1 PDZ domain 1 (Table 9 insert) …; assay: G assay titration, PDZ 0.5 ug/ml
# [17] = target: T14, GST-MINT1 PDZ domain 2 (Mus musculus …); assay: G assay titration, PDZ 5 ug/ml
# [18] = target: T15, GST-SITAC-18 PDZ domain 2 (Homo sapiens …); assay: G assay titration, PDZ 5 ug/ml
binder,measurement,setting,value
KTMPAAMYRLLTAQEQPVYI (modifications not checked) [MINT-1],Kd,[1],2000 nM
same,Kd,[2],1500 nM
VGTLLLERVIFPSVKIATLV (modifications not checked) [AdenoE4 typ9],Kd,[3],100 nM
same,Kd,[4],300 nM
same,Kd,[5],200 nM
same,Kd,[6],100 nM
same,Kd,[7],100 nM
same,Kd,[8],200 nM
same,Kd,[9],20 nM
same,Kd,[10],100 nM
same,Kd,[11],50 nM
PIPAGGCTFSGIFPTLTSPL (modifications not checked) [KIA 1481],Kd,[12],800 nM
same,Kd,[13],600 nM
AWDDSARAAGGQGLHVTAL (modifications not checked) [LPAP],Kd,[14],1500 nM
VPGALDYAAFSSALYGESDL (modifications not checked) [a-actinin 2],Kd,[15],2500 nM
same,Kd,[16],1000 nM
ILNSIQVMRAQMNQIQSVEV (modifications not checked) [ephrin B2],Kd,[17],3000 nM
same,Kd,[18],5000 nM
